Data published in publication PMC9965484.

Biological target: Fibroblast activation protein (FAP), recombinant human, carrier-free (BioLegend) (Homo sapiens) (UniProt Q12884)
Assay: CE-LIF (NECEEM)
Conditions: CE-LIF/NECEEM: buffer for Kd not stated, CE separation (SELEX) 20 kV, 25 C, specificity: 10 min at 37 C, PBS pH 7.2 as control, AuNP assay: room temperature …

Sequence of UniProt Q12884 (Q12884 whole entry): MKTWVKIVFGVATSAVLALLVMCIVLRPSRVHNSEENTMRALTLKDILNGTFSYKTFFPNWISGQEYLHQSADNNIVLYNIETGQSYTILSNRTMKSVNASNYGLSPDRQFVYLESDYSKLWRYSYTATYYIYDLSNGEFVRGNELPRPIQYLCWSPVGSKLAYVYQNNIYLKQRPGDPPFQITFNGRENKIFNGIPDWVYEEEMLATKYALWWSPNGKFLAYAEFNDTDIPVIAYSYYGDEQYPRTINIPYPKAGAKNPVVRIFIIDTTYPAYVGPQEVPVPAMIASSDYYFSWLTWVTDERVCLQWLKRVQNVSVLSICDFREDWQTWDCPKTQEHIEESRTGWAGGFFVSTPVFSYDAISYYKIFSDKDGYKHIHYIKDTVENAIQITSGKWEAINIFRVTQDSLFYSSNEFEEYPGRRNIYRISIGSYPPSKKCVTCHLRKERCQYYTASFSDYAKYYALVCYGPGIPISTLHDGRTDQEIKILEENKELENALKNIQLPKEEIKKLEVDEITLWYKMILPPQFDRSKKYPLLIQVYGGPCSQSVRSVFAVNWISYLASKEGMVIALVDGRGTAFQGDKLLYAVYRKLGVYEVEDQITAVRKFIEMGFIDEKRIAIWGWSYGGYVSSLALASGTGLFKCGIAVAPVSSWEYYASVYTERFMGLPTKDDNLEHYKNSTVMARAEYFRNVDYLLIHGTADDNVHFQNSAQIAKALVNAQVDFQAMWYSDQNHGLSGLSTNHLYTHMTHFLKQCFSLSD

Sequence | Kd (exact value only in figure) [µM] | Kd [µM] | further results
AGCAGCACAGAGGTCAGATGGCCACATTAGTCTCACCACTACCTGCGTACCTACCGCCGCCCTATGCGTGCTACCGTGAA [AptFAP-A2] | – | – | Kd (lowest affinity of the five, exact value only in figure): > 1 µM
AGCAGCACAGAGGTCAGATGGCAGCTAAGCAGGCGGCTCACAAAACCATTCGCATGCGGCCCTATGCGTGCTACCGTGAA [AptFAP-A5] | > 1 | – | –
AGCAGCACAGAGGTCAGATGGCCATCCCCCCGTCCGATGAGTGGTGCTCCTATGCGTTCCCCTATGCGTGCTACCGTGAA [AptFAP-A3] | > 1 | – | –
AGCAGCACAGAGGTCAGATGGCGAAGCGTACCGGCTACCCAGTGACAGTCGCCGTGGGTCCCTATGCGTGCTACCGTGAA [AptFAP-A1] | – | 0.5 | –
AGCAGCACAGAGGTCAGATGCCGCAGGCAGCTGCCATTAGTCTCTATCCGTGACGGTATGCCTATGCGTGCTACCGTGAA [AptFAP-A4] | – | 0.5 | –
